Patent publication US20240327503A1 (University of Texas, published 2024)

Biological target: spike protein of SARS-COV-2 WA1 live virus (SARS-CoV-2, UniProt P0DTC2 14-1273)
Test: cell-based or functional assay

B1: A7V3 (antibody, V domains shown)
VH: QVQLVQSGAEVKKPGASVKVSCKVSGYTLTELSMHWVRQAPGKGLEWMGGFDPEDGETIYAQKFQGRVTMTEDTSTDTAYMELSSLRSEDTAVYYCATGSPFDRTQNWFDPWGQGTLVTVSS
VL: QSVVTQPPSVSAAPGQKVTISCSGSSSNIGNNYVSWYQQLPGTAPKLLIYDNNKRPSGIPDRFSGSKSGTSATLGITGLQTGDEADYYCGTWDSSLSAVVFGGGTKLTVL
For B1, the “IC50, live virus neutralization of SARS-CoV-2 WA1” value was 0.95 nM.
